Assay results as given in PMC11143371.

How the values were obtained:
[1] = molecular target: RV3 F ectodomain without GCN4, Q89M + Q222I + L168P + S470V (human respirovirus 3 (HPIV3/Seattle/USA/10Q7/2010)); test: SEC
[2] = molecular target: RV3 F ectodomain without GCN4, Q89M + Q222I + L168P + S470V + S477V (human respirovirus 3 (HPIV3/Seattle/USA/10Q7/2010)); test: SEC
[3] = molecular target: RV3 F ectodomain without GCN4, Q89M + Q222I + L168P + S477V (human respirovirus 3 (HPIV3/Seattle/USA/10Q7/2010)); test: SEC
[4] = molecular target: RV3 F ectodomain without GCN4, five head-stabilizing substitutions (S41P, N167P, Q89M, Q222I, L168P) (human respirovirus 3 (HPIV3/Seattle/USA/10Q7/2010)); test: SEC-MALS; analytical SEC-MALS of F variants in supernatant
[5] = molecular target: RV3 F ectodomain without GCN4, five head-stabilizing substitutions plus S470V and S477V (human respirovirus 3 (HPIV3/Seattle/USA/10Q7/2010)); test: as above
[6] = molecular target: stabilized RV1 preF (A44P + E170P + Q171P + S473V + A480V) (human respirovirus 1) (UniProt P12605); test: SEC-MALS
[7] = molecular target: stabilized RV1 preF (A44P + E170P + Q171P + S473V + A480V) (human respirovirus 1) (UniProt P12605); test: SEC
[8] = molecular target: stabilized RV1 preF with K339P (A44P + E170P + Q171P + K339P + S473V + A480V) (human respirovirus 1) (UniProt P12605); test: SEC

“RV3 F ectodomain without GCN4, Q89M + Q222I + L168P + S470V (domain or fragment)” was tested, and the stoichiometry N [1] was 3.

“RV3 F ectodomain without GCN4, Q89M + Q222I + L168P + S470V + S477V (domain or fragment)” was tested, and the stoichiometry N [2] was 3.

In the case of “RV3 F ectodomain without GCN4, Q89M + Q222I + L168P + S477V (domain or fragment)”, the stoichiometry N [3] is reported as 3.

With “RV3 F ectodomain without GCN4, five head-stabilizing substitutions (S41P, N167P, Q89M, Q222I, L168P) (domain or fragment)” the stoichiometry N [4] was 3.

For “RV3 F ectodomain without GCN4, five head-stabilizing substitutions plus S470V and S477V (domain or fragment)”, the stoichiometry N [5] was 3.

Substance “stabilized RV1 preF (A44P + E170P + Q171P + S473V + A480V) (from UniProt P12605 22-496) (domain or fragment)” has a stoichiometry N [6] of 3 and a stoichiometry N [7] of 3.

Substance “stabilized RV1 preF with K339P (A44P + E170P + Q171P + K339P + S473V + A480V) (from UniProt P12605 22-496) (domain or fragment)” has a stoichiometry N [8] of 3.
